Experimental data published in patent publication US20220235144A1 (QILU PUGET SOUND BIOTHERAPEUTICS, published 2022).
Like-named read-outs stand apart in the source and are kept apart here.

T1: cSIRPαV1D1 with histidine tag (cynomolgus monkey (Macaca fascicularis), UniProt Q5TFQ8 30-146 (human entry))
T1 construct: also called cynomolgus monkey SIRPαV1D1; not shown: histidine tag
T1 chain: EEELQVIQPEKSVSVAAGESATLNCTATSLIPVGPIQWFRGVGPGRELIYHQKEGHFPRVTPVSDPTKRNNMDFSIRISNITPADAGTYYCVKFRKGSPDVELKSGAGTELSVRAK

T2: cSIRPαV2D1 with histidine tag (cynomolgus monkey (Macaca fascicularis), UniProt Q5TFQ8 30-146 (human entry))
T2 construct: also called cynomolgus monkey SIRPαV2D1; not shown: histidine tag
T2 chain: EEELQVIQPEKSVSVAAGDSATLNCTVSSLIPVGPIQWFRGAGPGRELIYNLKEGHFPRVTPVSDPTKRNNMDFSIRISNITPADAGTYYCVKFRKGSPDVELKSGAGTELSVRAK


Columns and labels:
[1] = molecular target: T3, hSIRPαV1 expressed on the cell surface (human, UniProt P78324 31-504); experiment: FACS competition on EXPI293 cells stably expressing hSIRPαV1: biotinylated hCD47:Fc (2.5 µg/ml) mixed with serial dilutions of the antibody, bound hCD47:Fc detected with streptavidin-PE (MFI); blocked ligand: hCD47:Fc
T3 construct: also called human SIRPα variant V1
Experimental: (§1) The x axes show the antibody concentration in μg/ml. The y axes show mean fluorescence intensity (MFI) at about 572 nm (due to binding of biotinylated CD47:Fc, detected by a streptavidin-phycoerythrin conjugate).
(§2) Some of the anti-SIRPα antibodies described above were tested in vitro for their ability to inhibit binding of CD47 to hSIRPαV1 or hSIRPαV2 expressed on the surface of EXPI293™ cells stably transfected with DNA encoding these proteins. Briefly, stable transfectants expressing hSIRPαV1 or hSIRPαV2 were seeded into 96-well microtiter plates. […] After 30 minutes incubation, cells were washed, streptavidin-phycoerythrin (streptavidin-PE) was added, and cells were subjected to FACS to detect bound hCD47:Fc. Results were reported as a mean fluorescence intensity (MFI) using FlowJo software (FLOWJO, L.L.C., Ashland, Oreg., USA). FIGS. 4 and 5 show the MFI detected on the y axes of both panels and the antibody concentration on the x axes of both panels.

[2] = molecular target: T4, hSIRPγD1 with histidine tag (human, UniProt Q9P1W8 31-149); experiment: SPR (Biacore 3000), IgG captured on anti-human IgG, His-tagged D1 analyte
T4 construct: also called first immunoglobulin-like domain of human SIRP Gamma; not shown: histidine tag
Excerpt: (§3) Goat anti-human IgG capture antibody (Jackson Laboratories; 109-005-098) was immobilized on the four flow cells in each sensor chip using standard amine coupling chemistry. About 8000 resonance units (RU) of this antibody was immobilized on each flow cell. Flow cells 2, 3, and 4 were used to analyze captured anti-SIRPα antibodies (about 250 to 300 RU were captured on each of flow cells 2, 3, and 4), while flow cell 1 was used as the reference flow cell. The analytes tested were hSIRPαV1D1, hSIRPαV2D1, cynomolgus monkey SIRPαV1D1 (cSIRPαV1D1), cSIRPαV2D1, hSIRPβ1D1, and hSIRPγD1, each of which also included a histidine tag. The sequences of cSIRPαV1D1 and cSIRPαV2D2 are provided in SEQ ID NOs: 143 and 142, respectively. To avoid confusion, the differences between the amino acid sequences of cSIRPαV1D1 and cSIRPαV2D1 are not the same as the differences between the amino acid sequences of hSIRPαV1D1 and hSIRPαV2D1. […] The amino acid sequence of hSIRPβ1D1 can be found in amino acids 30-148 of SEQ ID NO: 144, and the amino acid sequence of hSIRPγD1 can be found in amino acids 31-149 of SEQ ID NO: 141.
(§4) Generally, concentrations from about 0.1×KD to about 10×KD are appropriate for kinetic analysis. From one to six different concentrations were evaluated for each antibody:analyte interaction, depending on the comparisons to be made in an individual experiment. All analyte dilutions were prepared in HPS-EP buffer. Multiple blank (running buffer) injections were run and used to assess and subtract system artifacts. The association phase and dissociation phase for all analyte concentrations were monitored for 180 seconds and 300 seconds, respectively, at a flow rate of 50 μL/min. Between antibody samples, the surfaces of the flow cells were regenerated with 10 mM glycine, pH 1.5 using two injections, each lasting 12 seconds at a flow rate of 50 μL/min.
(§5) The data were analyzed using BIAevaluation software (Biacore, General Electric (GE)). The data was fit using the 1:1 Langmuir model.

[3] = molecular target: T5, hSIRPβ1D1 with histidine tag (human, UniProt O00241 30-148); experiment: as above
T5 construct: analyte of the Biacore experiments; also called hSIRPβD1; not shown: histidine tag
Excerpt: as §3, §4, §5

[4] = molecular target: T1, cSIRPαV1D1 with histidine tag; experiment: as above
Excerpt: as §3, §4, §5

[5] = molecular target: T6, hSIRPαV2D1 with histidine tag (human); experiment: as above
T6 construct: analyte of the Biacore experiments; also called first immunoglobulin-like domain of human SIRPα variant V2; not shown: histidine tag
Excerpt: as §3, §4, §5

[6] = molecular target: T7, hSIRPαV1D1 with histidine tag (human, UniProt P78324 31-147); experiment: as above
T7 construct: analyte of the Biacore experiments; also called first immunoglobulin-like domain of human SIRPα variant V1; not shown: histidine tag
Excerpt: as §3, §4, §5

[7] = molecular target: T2, cSIRPαV2D1 with histidine tag; experiment: as above
Excerpt: as §3, §4, §5

[8] = molecular target: T8, hSIRPαV2 expressed on the cell surface (human, UniProt P78324 31-504); experiment: FACS competition on EXPI293 cells stably expressing hSIRPαV2: biotinylated hCD47:Fc (2.5 µg/ml) mixed with serial dilutions of the antibody, bound hCD47:Fc detected with streptavidin-PE (MFI); blocked ligand: hCD47:Fc
T8 construct: whole, on cells; also called human SIRPα variant V2
Experimental: as §1, §2

[9] = molecular target: T8, hSIRPαV2 expressed on the cell surface; experiment: flow cytometry on primary human monocytes (FSC/SSC gate) in PBMCs expressing only SIRPαV2, antibody detected with APC-(Fab)2 goat anti-human IgG Fc (MFI at about 670 nm)
Experimental: FIG. 6: Binding of anti-SIRPα antibodies to T cells and monocytes. Methods are described in Example 4. […] The x axes show the antibody concentration in μg/ml. The y axes show mean fluorescence intensity (MFI) at about 670 nm (due to binding of allophycocyanin (APC)-conjugated (Fab)₂ goat anti-human IgG Fc-specific secondary antibody).
Some of the anti-SIRPα antibodies were tested in vitro for binding to primary T cells and monocytes in peripheral blood mononuclear cells (PBMCs). Briefly, PBMCs that expressed only SIRPα V2 were seeded in 96-well microtiter plates. Serial dilutions of anti-SIRPα antibodies were incubated with the cells on ice for 30 minutes. […] The cells were then subjected to FACs. T cells were gated based on their anti-CD4 or anti-CD8 binding (detected by FITC fluorescence), since T cells commonly express either CD4 or CD8. Monocytes were gated based on their forward scatter/side scatter (FSC/SSC) profile, since a characteristic FSC/SSC profile can identify monocytes. See, e.g., Marimuthu et al., Characterization of human monocytes subsets by whole blood flow cytometry analysis, J. Vis. Exp. (140), e57941, doi:10.3791/57941 (2018). The binding of anti-SIRPα antibodies to each population was reported as a mean fluorescence intensity (MFI) of the APC channel (670 nm).

[10] = molecular target: T3, hSIRPαV1 expressed on the cell surface; experiment: FACS competition on EXPI293 cells stably expressing hSIRPαV1: biotinylated hCD47:Fc (2.5 µg/ml) mixed with serial dilutions of the antibody, bound hCD47:Fc detected with streptavidin-PE (MFI); blocked ligand: hCD47:Fc; remark: listed apart in the source
Experimental: (§6) The x axes show the antibody concentration in μg/ml. The y axes show mean fluorescence intensity (MFI) at about 572 nm.
as §2

[11] = molecular target: T8, hSIRPαV2 expressed on the cell surface; experiment: FACS competition: inhibition of biotinylated hCD47:Fc (2.5 µg/ml) binding to EXPI293 cells expressing hSIRPαV2, FIG. 5A
Experimental: as §6, §2

Row | IC50 (read off the curve) [1] [µg/mL] | Kd [2] [nM] | Kd [3] [nM] | Kd [4] [nM] | Kd [5] [nM] | Kd [6] [nM] | Kd [7] [nM] | IC50 (read off the curve) [8] [µg/mL] | EC50 (read off the curve) [9] [µg/mL] | IC50 (read off the curve) [10] [µg/mL] | IC50 [11] [µg/mL] | Binder
1 | ~0.6 | 244 | 1.39 | 36.4 | 3.12 | 67.9 | ~399 | ~0.2 | – | – | – | Ab1_G4 (antibody, human IgG4 S228P, kappa, V domains shown, human IgG4 format, kappa light chain, made in EXPICHO cells) VH: EVQLVESGGGLVKPGGSLRLSCAASGFTFSSYVMSWVRQTPGKGLEWVATISSGGTYTYYPSSVKGRFTLSRDNAKNSLYLQMNSLRAEDTAVYYCASSLTGSSFDYWGQGTTVTVSS VL: DIVLTQSPASLAVSLGERATISCRASESVDLYGTSFMHWYQQKPGQPPKLLIYRASNLESGVPDRFSGSGSRTDFTLTINPLQAEDVATYYCHQSSDELPWTFGGGTKVEIKR
2 | – | ~7310 | 11.1 | 127 | 3.09 | 231 | ~519 | ~0.3 | ~0.06 | – | – | Ab11_G4 (antibody, human IgG4 S228P, kappa, V domains shown, human IgG4 format) VH: EVQLVESGGGLVKPGGSLRLSCAASGFTFSSYVMSWVRQTPGKGLEWVATISSGGTYTYYPDSVKGRFTLSRDNAKNSLYLQMNSLRAEDTAVYYCASQLTGSEFDYWGQGTTVTVSS VL: DIVITQSPASLAVSLGERATISCRASESVDSYGNSFMHWYQQKPGQPPKLLIYRASNLESGVPDRFSGSGSRTDFTLTINPLQAEDVATYYCHQSGDLPWTFGGGTKVEIKR
3 | – | – | – | – | – | – | – | – | – | ~0.4 | 0.22 | Ab24_G2 (antibody, human IgG2, kappa, like Ab24_G4 but with an IgG2 HC; also called Ab24_IgG2) heavy: EVQLVESGGGLVKPGGSLRLSCAASGFTFSSYVMSWVRQTPGKGLEWVATISSGGTYTYYPDSVKGRFTLSRDNAKNSLYLQMNSLRAEDTAVYYCASQLTGSEFDYWGQGTTVTVSSASTKGPSVFPLAPCSRSTSESTAALGCLVKDYFPEPVTVSWNSGALTSGVHTFPAVLQSSGLYSLSSVVTVPSSNFGTQTYTCNVDHKPSNTKVDKTVERKCCVECPPCPAPPVAGPSVFLFPPKPKDTLMISRTPEVTCVVVDVSHEDPEVQFNWYVDGVEVHNAKTKPREEQFNSTFRVVSVLTVVHQDWLNGKEYKCKVSNKGLPAPIEKTISKTKGQPREPQVYTLPPSREEMTKNQVSLTCLVKGFYPSDIAVEWESNGQPENNYKTTPPMLDSDGSFFLYSKLTVDKSRWQQGNVFSCSVMHEALHNHYTQKSLSLSPGK light: DIVLTQSPASLAVSLGERATISCRASESVDLYGTSFMHWYQQKPGQPPKLLIYRASNLESGVPDRFSGSGSRTDFTLTINPLQAEDVATYYCHQSSDELPWTFGGGTKVEIKRTVAAPSVFIFPPSDEQLKSGTASVVCLLNNFYPREAKVQWKVDNALQSGNSQESVTEQDSKDSTYSLSSTLTLSKADYEKHKVYACEVTHQGLSSPVTKSFNRGEC
4 | – | – | – | – | – | – | – | – | – | ~0.3 | 0.17 | Ab24_4422 PA (antibody, human IgG4 S228P, kappa) heavy: EVQLVESGGGLVKPGGSLRLSCAASGFTFSSYVMSWVRQTPGKGLEWVATISSGGTYTYYPDSVKGRFTLSRDNAKNSLYLQMNSLRAEDTAVYYCASQLTGSEFDYWGQGTTVTVSSASTKGPSVFPLAPCSRSTSESTAALGCLVKDYFPEPVTVSWNSGALTSGVHTFPAVLQSSGLYSLSSVVTVPSSSLGTKTYTCNVDHKPSNTKVDKRVESKYGPPCPPCPAPPVAGPSVFLFPPKPKDTLMISRTPEVTCVVVDVSHEDPEVQFNWYVDGVEVHNAKTKPREEQFNSTFRVVSVLTVVHQDWLNGKEYKCKVSNKGLAAPIEKTISKTKGQPREPQVYTLPPSREEMTKNQVSLTCLVKGFYPSDIAVEWESNGQPENNYKTTPPMLDSDGSFFLYSKLTVDKSRWQQGNVFSCSVMHEALHNHYTQKSLSLSPGK light: DIVLTQSPASLAVSLGERATISCRASESVDLYGTSFMHWYQQKPGQPPKLLIYRASNLESGVPDRFSGSGSRTDFTLTINPLQAEDVATYYCHQSSDELPWTFGGGTKVEIKRTVAAPSVFIFPPSDEQLKSGTASVVCLLNNFYPREAKVQWKVDNALQSGNSQESVTEQDSKDSTYSLSSTLTLSKADYEKHKVYACEVTHQGLSSPVTKSFNRGEC
